Experimental data taken from patent US20260327294 (published 2026).
Where two headings read alike, the source gives them in different places.

B1: F6-61 (antibody, V domains shown)
VH: QVTLRQSGPALVKPTQTLTLTCTFSGFSLSTRGMCVNWIRQPPGKALEWLARIDWDDDKYYTTSLKTRLTISKDTAKNHVVLSMTNMDPVDTATYYCARIRCYDYVWGDDEVFDIWGQGTMVSVSS
VL: QSVLTQPPSASGTPGQSVTISCSGSTSNIGSNNVNWYQQLPGAAPKLVIHTNDQRPSRVPDRFSGSTSGTSASLAISGLQSEDEADYYCAAWDDSLNGLLFGGGTKLTVL
B2: F6-65 (antibody, V domains shown)
VH: QVQLVESGGGLVQPGDSLRLSCAASGFTFKSYGLHWVRQAPGKGLEWVAGLSYDGFSGYYADSVKGRFTVSRDNSKNTLYLHINSLRSEDTSIYYCARGGDGEIFSWIGYFYYMDVWGKGTTVTVFS
VL: QSALTQPASVSGSPGQSITISCSGTTNDVGGYDYVSWYQHHPGKAPKLLIYDVSQRPSGVSSRFSGSKSGNTASLTISGLQTDDEAHYYCSSYTITNTLKFGGGTTLTVL
B3: F6-207 (antibody, V domains shown)
VH: QITLKESGPTLLKPTQTLTLTCTFSGFSLTTTGVAVGWVRQPPGKALEWLALIYWDDDKRYSPSLKSRVTITKDTSKNQVLLAMTDMDPVDTATYYCAHFDYGDPEVVALFEYSYYMDVWGKGITVTVSS
VL: QSVLTQPPSVSGTPGQRVTISCSGSSSNIGSNYVYWYQHLPGTAPKLLIYTNNRRPSGVPDRFSGSKSGTSASLAVSGLRSEDEADYFCAVWDDSVGGHWVFGGGTKLTVL
B4: F6-133 (antibody, V domains shown)
VH: EVQVVESGGGLVQPGGSLRLSCAASSFSVTGSYMTWVRQAPGKGLESVSLIYSTGSTYYADSVKGRFVISRDDSKNILFLQMNNLRVEDTGVYFCARLGPAGGSWSWEFYGLDVWGQGTTVTVFS
VL: CVQMTQSPSFLSASVGDRVTISCRASQGTTSYLAWYQQKPGKAPKLLIYGVSTLQTGVPSRFSGSGSGTDFTLTISNLQPEDFATYYCQQVNIFPYTFGPGTKVEIK
B5: F6-227 (antibody, V domains shown)
VH: QVQLQQSGPGLVKPSETLSLACSVSGGSMSDFYWSWIRQSPGTGLEWIGYVHHSGKVNYNPSLKARVTMSLDTSKYLLSLNLASMTAADSAVYYCAATSAFVDSSSYSPPYFDFWGQGTLITVSS
VL: DIQLTQSPSSLSASVGDRVTITCQASHDITNYLNWYQQTPGKAPRLLIYVATNLETGVPSRFSGSGSGTHFTLTISSLQPEDSATYYCQQYDNLPITFGGGTRVEIR
B6: F6-88 (antibody, V domains shown)
VH: QVQLVQSGAEVKKPGASVRVSCGASGNSFTRHGFSWVRQAPGQGLEWIGLISAHKSNTIYAQKFQGRVTVTTDTSTSTAYMELRSLRSDDTAVYYCVRDVTVVTDVGSGYDFPMDVWGQGTTVTVSS
VL: QSVLTQSPSASGTPGQRVTISCSGSNSNIGGDYVHWYQQVPGTAPRLLIYNTNQRPSGVPDRFSGSKSGTSGSLAISGLRSEDEADYYCATWDDSLNGWVFGGGTKLTVL
B7: F6-63 (antibody, V domains shown)
VH: QVQVVESGGGVVEPGGSLSLSCAASGFSFKMHAMHWVRQAPGKGLEWVAFIPYDGSSQYYADSVKGRFTIYRDNFKNTLYLQMNSLRVEDTSLYYCARGGEEGAWSWIGYNSYMDVWGRGTAVTVSS
VL: QSALTQPASVSGSPGQSITISCSGTSSDVGGYDYVCWYQKHPGESPRLIIYDVSRRPSGVSNRFSGSKSGNTASLTISGLQAEDEADYSCSSYTSSNTLIFGGGTKLTVL
B8: F6-153 (antibody, V domains shown)
VH: QVQLQQWGAGLLRPSETLSLTCAVSGVSLSGDYLTWIRQTPGKGLEWIGEINHSGSTNYNPSLKSRVTISVETSKNHFSLKMRSVTAADSALYYCARGWEYCHGTTCYSKAFDIWGQGTLVTVSS
VL: DIQMTQSPSSLSASVGDRVTITCQASQDISNYLIWYQQKPGRAPKLLIFDASKLEKGVPPRFSGSGSGTYFTFTISSLQPEDFATYYCQQFHNLPVTFGGGTKLETK
B9: F6-208 (antibody, V domains shown)
VH: QVQLEESGGGVVQPGTSLRLSCSSSGVTRNTYAVHWVRQVPGKGLEWLAATSYDGTSKYYPENGHGRVSISKEYSTNMVYLEIYNLRPEDTAVYFCAKGPQGIYSYIGYFYYMDVWGKGTTVTVSS
VL: QSALTQPASVSGSPGQSITLSCTGSRDDVGDYDYVSWYQHHPGKAPRLIIYDVTSRPSGVSPRFSGSKSGNTASLTISGLQADDEADYYCNSYTSSNSVVFGGGTKVTVL
B10: F6-70 (antibody, V domains shown)
VH: QVQLVESGGGVVQPGRSLRLSCAASGFTFKNFAMHWVRQAPGKGLEWVAAVSYDGTSKYQADSVKGRFTISRDNSKNTLYLQMNSLRAEDTAVYYCARVESSGSGHYSYLGYFYCMDVWGKGTTVTVSS
VL: QSALTQPASVSASPGQSITISCTGTRNDVGGYEYVSWYQQHPDKAPKLMIFDVSNRPSGVSNRFSGSKSGNTASLTISGLQAEDEADYYCSSYTINNTLVFGGGTKVTVL
B11: F6-141 (antibody, V domains shown)
VH: QVQLAQSGAEVRRPGTSVKVSCRSSAYDFIDDSIHWVRQAPGQGLEWMGRIDPSGDTTTYAPQFQVRITLTRDTSTSTASMELNRLTSQDTAMYYCVAYERATTLAGVGASDVWGQGTWVTVSS
VL: DIVMTQSPLSLSVTPGEPASISCRSSQSLLYRDGYNYLDWYLQKPGQSPQLLLYFASYRASGVPDRFSGSGSGTDFTLTITRVEPEDVGIYYCMQSLQTPFTFGPGTKLDFK
B12: F6-172 (antibody, V domains shown)
VH: EEQLVESGGGLVQPGGSLKLSCAASGFILSDSTVHWVRQASGRGLEWVGRIANGYATSYAASVKGRFTISTDDSGNTAYLEMNSLKTEDTAVYYCTSRSVVVTDVGAGRDDYWGQGTLVTVSS
VL: DIVMTQSPLSLPVTPGEPASISCRSSQSLLHRNGYNYLDWYLQKPGQSPQLLIWLGSNRASGVPDRFSGSGSGTDFTLTISRVEAEDVGVYYCMQDLQTPPTFGGGTKVEIM
B13: F6-210 (antibody, V domains shown)
VH: QERLAQSGTEVKKPGASVKVSCRALGYTFSDYSIHWVRQAPRQGLEWMGKINTSGGTTTYAQKFQARVTLTSDTSTSTASMELSSLKIEDTAVYYCVAYERATTLAGAGASDIWGQGTLVTVSS
VL: DIVMTQSPLSLPVTPGEPASISCRSSQSLLHSDGYNYLDWYLQKPGQSPHLLIYLGSNRASGVPDRFSGSGSGTDFTLKITRVEPEDVGVYYCMQSLQTPFTFGPGTKVDVK
B14: F6-132 (antibody, V domains shown)
VH: QEQSVQSGAEVKKPGASVKVSCRASEFTFSTDFIHWVRQAPGQGLEWMGRITPSDGTTTYAQKFQGRVTMTRDPSTNTVYIELRRLKSEDTAVYYCVAYDRVTTSAGTGASDIWGQGTMVTVSS
VL: DIVMTQSPLSLPVTPGEPASISCRSSQSLLHGDGYNYLDWYLQKPGRSPQLLIYLGSHRASGVPDRFSGSGSGTDFTLRISRVEAEDVGIYYCMQGLQTPFTFGPGTKVDIK
B15: F6-115 (antibody, V domains shown)
VH: QLQLHQRGAGLLKPSETLSLTCDVYGGSVSDDEWTWIRQSPGKGLEWIGQIDRTGSSNYNPSLRSRVTISPDTSNNQFSMSLTSVTAADTALYFCARGGLVVTDVGRGWDAFDVWGQGTMVTVSS
VL: DIQMTQSPSSVSASVGDRITITCRASQHINNWLAWYQQKPGEAPKLLIYAASTLQRGVPSRFSGSGSGTRFTLTITSLQPEDFASYFCQQGDSFPLTFGGGTKVEIK
B16: F6-215 (antibody, V domains shown)
VH: QEQSVQSGPEVKKPGASVKVSCRASEFTFSTDFIHWVRQAPGQGLEWMGRITPSDGTTTYAPKFQGRVAVTRDPSTKNVYIQLTRLKSEDTAVYYCVAYDRATTSAGAGATDIWGQGTLVTVSS
VL: DIVMTQSPLSLPVTPGEPASISCRSSQSLLHGDGYNYLDWYLQRPGRSPQLLIYLGSHRASGVPDRFSGSGSGTDFTLRISRVEAEDVGIYYCMQGLQTPFTFGPGTKVDIK
B17: F6-213 (antibody, V domains shown)
VH: QEQLVQSGAEVKRPGTSVKVSCKASGYAFTDYSIHWVRQAPGVGLEWMGKIYPGDGHALYAQNFQGRVTLTRDTSTASVYMELRSLRSQDTAVYYCVAYERATTLAGAGASDIWGQGTMVTVSS
VL: DIVMTQSPLSLPVTPGEPASISCRSSQSLLQSDGYNYMDWYLQKPGRSPQLLIYLGSHRASGVPDRFSGSGSGTDFTLRISRVKAEDVGIYYCMQSLQSPFTFGPGTKVDIK
B18: F6-124 (antibody, V domains shown)
VH: QVQLVQSGTEVKKPGASVKISCKASGYTFTGNAINWVRQAPGQGLEWLGWISVNNGNTKYVQKFQGRVTMTTDTSTSTAYMELRSLGSDDTAVYYCAREVVNYGSGSLNFDSWGQGTLVTVSS
VL: SYELTQPPSVSVSPGQTVSISCSGDKLGNDYVSWYQQKPGQSPVLVIYEDSKRPSGIPERFSGSNSGNTATLTISGTQAMDESDYYCQAWDGSTVIFGGGTKLTVL
B19: F6-27 (antibody, V domains shown)
VH: QEQLMESGGDVVRPGTSLTLSCKASGFAFRSHALHWVRQAPGKGLEWVSVISYDGGHTNSADSLEGRFTVSRDNSKNILYLQMNSLRTEDTAVYFCARSEGSYRSWPGYFYYMDVWGNGTTVTVSS
VL: QSALTQPASVSGSPGQSITISCIGTSSDVGGYYYVSWYQQHPGRAPKLIIFDVTDRPSGVSSRFSGSQSGNTASLTISGLQPEDEADYYCNSYSSSTIPYVFGSGTKVTVL
B20: F6-38 (antibody, V domains shown)
VH: QVQLEESGGGVVQPGRSLTLSCAASGFTLKNYAIHWVRQAPGKGLEWVAVTAYDGFTSYYADSVKSRITISRDNSKNTAYLHLNNVRDDDAAFYYCARGGEGAFSWLGYLQYMDVWGRGTTVAVSS
VL: QSTLTQPASASGSPGQSITISCTGTSNDIGSYTYVSWYQHHPGKAPKLMIYDVNERPSGISHRFSGSKSGNTASLTISGLQPEDEADYYCNSYTINNTLKFGGGTRLTVL

Key:
RSV A2 pre-F [1] = molecular target: RSV A2 pre-F (RSV A2); experiment: ELISA
RSV A2 pre-F [2] = molecular target: RSV A2 pre-F (RSV A2); experiment: BLI
RSV A2 pre-F [3] = molecular target: RSV A2 pre-F (RSV A2); experiment: BLI; remark: listed apart in the source
RSV A2 pre-F [4] = molecular target: RSV A2 pre-F (RSV A2); experiment: ELISA; remark: listed apart in the source

Row | Binder | EC50 (RSV A2 pre-F [1]) [µg/mL] | Kd (RSV A2 pre-F [2]) [nM] | Kd (RSV A2 pre-F [3]) [nM] | EC50 (RSV A2 pre-F [4]) [µg/mL]
1 | B1 | 0.0613 | 3.25 |  | 
2 | B2 |  |  | 0.96 | 0.00998
3 | B3 | 0.0354 | 0.291 |  | 
4 | B4 | 0.0494 | 0.0669 |  | 
5 | B5 | 0.0226 | 0.169 |  | 
6 | B6 |  |  | 0.86 | 0.0169
7 | B7 |  |  | 0.783 | 0.0161
8 | B8 | 0.018 | < 0.001 |  | 
9 | B9 | 0.0198 | 0.0533 |  | 
10 | B10 | 0.0585 | 2.11 |  | 
11 | B11 | 0.0166 | < 0.001 |  | 
12 | B12 | 0.0183 | < 0.001 |  | 
13 | B13 | 0.0281 | 0.106 |  | 
14 | B14 | 0.0167 | < 0.001 |  | 
15 | B15 | 0.0117 | < 0.001 |  | 
16 | B16 | 0.0289 | 0.815 |  | 
17 | B17 | 0.0298 | 1.29 |  | 
18 | B18 | 0.0147 | < 0.001 |  | 
19 | B19 |  |  | 0.671 | 0.00987
20 | B20 |  |  | 1.38 | 0.00712
